Data reported in patent US20210253724A1 (Hoffmann-La Roche, published 2021).

T1: human CEACAM5 (CEA) on cells (human, UniProt P06731 35-685)
T1 construct: Endogenous on MKN45 cells; full-length cDNA transfected into CHO-K1 cells; also called CEA expressed on MKN45 cells; CHO-k1-huCEACAM5 clone 11, clone 12, clone 13
T1 sequence: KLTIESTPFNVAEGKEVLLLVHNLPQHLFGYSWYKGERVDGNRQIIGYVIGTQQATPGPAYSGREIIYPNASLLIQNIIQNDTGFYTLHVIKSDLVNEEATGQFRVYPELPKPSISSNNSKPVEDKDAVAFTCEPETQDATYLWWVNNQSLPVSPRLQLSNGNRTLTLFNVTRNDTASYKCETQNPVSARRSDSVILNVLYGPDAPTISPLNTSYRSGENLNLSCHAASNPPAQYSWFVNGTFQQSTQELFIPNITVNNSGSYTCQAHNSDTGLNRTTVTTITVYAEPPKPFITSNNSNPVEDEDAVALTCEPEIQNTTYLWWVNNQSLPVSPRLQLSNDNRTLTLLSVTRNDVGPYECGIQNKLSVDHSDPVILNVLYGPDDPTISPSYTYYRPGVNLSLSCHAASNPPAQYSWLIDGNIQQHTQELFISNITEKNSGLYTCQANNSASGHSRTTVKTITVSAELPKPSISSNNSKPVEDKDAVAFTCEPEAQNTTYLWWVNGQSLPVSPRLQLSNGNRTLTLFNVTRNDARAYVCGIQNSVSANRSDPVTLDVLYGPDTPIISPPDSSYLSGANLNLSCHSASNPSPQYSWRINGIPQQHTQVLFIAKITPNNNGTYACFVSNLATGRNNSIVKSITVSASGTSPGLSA


What was measured:
[1] = target: T2, cynomolgus monkey CEACAM5 on CHO-k1-cynoCEACAM5 clone 8 cells (cynomolgus monkey); assay: flow cytometry on CHO-k1-cynoCEACAM5 clone 8; set-up: unit not given beside the values
T2 construct: whole, on cells

[2] = target: T1, human CEACAM5 (CEA) on cells; assay: flow cytometry on CHO-k1-humanCEACAM5 clone 11
Method: (§1) Cells were incubated for 30 min at 4° C. and then washed twice with 80 μL/well DPBS. […] Cells were washed twice with 80 μL/well DPBS and then fixed in 30 μL/well DPBS containing 1% Formaldehyde for at least 15 minutes. The same or the next day cells were resuspended in 50 μL/well FACS-buffer and acquired using MACSQuant Analyzer X (Miltenyi Biotec).

[3] = target: T2, cynomolgus monkey CEACAM5 on …; assay: flow cytometry on CHO-k1-cynoCEACAM5 clone 8
Method: as §1

[4] = target: T3, human 4-1BB (CD137) on Jurkat-hu4-1BB-NFκB-luc2 reporter cells (human, UniProt Q07011 24-255); assay: cell-based or functional assay
[5] = target: T1, human CEACAM5 (CEA) on cells; assay: flow cytometry on CHO-k1-humanCEACAM5 clone 12
Method: as §1

[6] = target: T3, human 4-1BB (CD137) on …; assay: cell-based or functional assay; set-up: AUC of NFκB-luciferase activation curve, no CEA+ cells / AUC of NFκB-luciferase activation curve, with CHO-k1-cynoCEACAM5 clone 8: unit not given beside the values
[7] = target: T1, human CEACAM5 (CEA) on cells; assay: flow cytometry on CHO-k1-humanCEACAM5 clone 13
Method: as §1

[8] = target: T1, human CEACAM5 (CEA) on cells; assay: flow cytometry on CHO-K1-humanCEACAM5 clone 12 cells, goat F(ab')2 anti-human Fcγ-PE, median fluorescence intensity baseline corrected
Method: as §1

[9] = target: T4, human PD-L1 on MKN45-huPD-L1 cells (human, UniProt Q9NZQ7 19-290); assay: flow cytometry on MKN45-huPD-L1 cells, goat F(ab')2 anti-human Fcγ-PE, gMFI baseline corrected
T4 construct: Full-length cDNA transfected into MKN45 cells; also called humanPD-L1-expressing MKN45 cells
Method: as §1

[10] = target: T3, human 4-1BB (CD137) on …; assay: flow cytometry on Jurkat-hu4-1BB-NFκB-luc2 cells
Method: Plates were incubated for 30 minutes at 4° C. and washed once with 200 μL 4° C. cold DPBS buffer. […] Cells were washed twice with 200 μL 4° C. DPBS buffer and then resuspended in 50 μL/well DPBS containing 1% Formaldehyde for fixation. The same or the next day cells were resuspended in 100 μL FACS-buffer and acquired using MACSQuant Analyzer X (Miltenyi Biotec).

T4 sequence (Q9NZQ7 19-290 limits assumed): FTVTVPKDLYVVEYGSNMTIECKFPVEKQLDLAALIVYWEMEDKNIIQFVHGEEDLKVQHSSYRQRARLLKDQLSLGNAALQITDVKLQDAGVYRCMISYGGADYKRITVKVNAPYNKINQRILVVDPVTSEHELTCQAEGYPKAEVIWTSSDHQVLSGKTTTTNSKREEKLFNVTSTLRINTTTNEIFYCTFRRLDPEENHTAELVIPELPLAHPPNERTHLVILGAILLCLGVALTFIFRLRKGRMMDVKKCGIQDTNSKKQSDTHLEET

Row | AUC [1] | EC50 [2] | EC50 [3] | EC50 of NFκB-luciferase activation curve, no CEA+ cells [4] | EC50 of NFκB-luciferase activation curve, with CHO-k1-cynoCEACAM5 clone 8 [4] | EC50 of NFκB-luciferase activation curve, with CHO-k1-humanCEACAM5 clone 11 [4] | EC50 of NFκB-luciferase activation curve, with CHO-k1-humanCEACAM5 clone 12 [4] | EC50 [5] | AUC of NFκB-luciferase activation curve, no CEA+ cells [6] | AUC of NFκB-luciferase activation curve, with CHO-k1-cynoCEACAM5 clone 8 [6] | AUC of NFκB-luciferase activation curve, with CHO-k1-humanCEACAM5 clone 11 [6] | AUC of NFκB-luciferase activation curve, with CHO-k1-humanCEACAM5 clone 12 [6] | EC50 [7] | binding result [8] | binding result [9] | EC50 [10] | Binder
1 | 4850 | 11.4 nM | 48.8 nM | 0.04 nM | 0.07 nM | 0.04 nM | 0.03 nM | 13.9 nM | 1320 | 43100 | 65700 | 58900 | 12.9 nM |  |  |  | 2+1 H2H 4-1BB (20H4.9)/CEA (A5B7) P329GLALA IgG1 (bispecific antibody, also called 2+1 H2H anti-4-1BB (20H4.9)×anti-CEA (A5B7) huIgG1 P329GLALA) heavy 1: QVQLQQWGAGLLKPSETLSLTCAVYGGSFSGYYWSWIRQSPEKGLEWIGEINHGGYVTYNPSLESRVTISVDTSKNQFSLKLSSVTAADTAVYYCARDYGPGNYDWYFDLWGRGTLVTVSSASTKGPSVFPLAPSSKSTSGGTAALGCLVEDYFPEPVTVSWNSGALTSGVHTFPAVLQSSGLYSLSSVVTVPSSSLGTQTYICNVNHKPSNTKVDEKVEPKSCDKTHTCPPCPAPEAAGGPSVFLFPPKPKDTLMISRTPEVTCVVVDVSHEDPEVKFNWYVDGVEVHNAKTKPREEQYNSTYRVVSVLTVLHQDWLNGKEYKCKVSNKALGAPIEKTISKAKGQPREPQVCTLPPSRDELTKNQVSLSCAVKGFYPSDIAVEWESNGQPENNYKTTPPVLDSDGSFFLVSKLTVDKSRWQQGNVFSCSVMHEALHNHYTQKSLSLSP heavy 2: not shown light 1: not shown light 2: EVKLVESGGGLVQPGGSLRLSCATSGFTFTDYYMNWVRQPPGKALEWLGFIGNKANGYTTEYSASVKGRFTISRDKSQSILYLQMNTLRAEDSATYYCTRDRGLRFYFDYWGQGTTLTVSSASVAAPSVFIFPPSDEQLKSGTASVVCLLNNFYPREAKVQWKVDNALQSGNSQESVTEQDSKDSTYSLSSTLTLSKADYEKHKVYACEVTHQGLSSPVTKSFNRGEC
2 | 136 |  |  | 0.19 nM | 0.17 nM | 0.18 nM | 0.19 nM |  | 5070 | 4920 | 15400 | 11900 |  | no binding (tested: about 300 nM) | no binding (tested: 100 nM) | 0.073 nM | anti-4-1BB (20H4.9) huIgG1 P329GLALA (antibody, V domains shown, Standard huIgG1 P329G LALA antibody with two anti-4-1BB Fabs) VH: QVQLQQWGAGLLKPSETLSLTCAVYGGSFSGYYWSWIRQSPEKGLEWIGEINHGGYVTYNPSLESRVTISVDTSKNQFSLKLSSVTAADTAVYYCARDYGPGNYDWYFDLWGRGTLVTVSS VL: EIVLTQSPATLSLSPGERATLSCRASQSVSSYLAWYQQKPGQAPRLLIYDASNRATGIPARFSGSGSGTDFTLTISSLEPEDFAVYYCQQRSNWPPALTFGGGTKVEIK
